Paper PMC2816692, “Structural and Biochemical Characterization of SrcA, a Multi-Cargo Type III Secretion Chaperone in Salmonella Required for Pathogenic Association with a Host” (PLoS Pathogens, 2010)

Molecular target: the molecule itself
Test: SEC; SrcA alone, 200 µl at 1.1 mg/ml; Superdex S200 10/300GL; 20 mM Tris pH 7.5, 200 mM KCl

B1: His-tagged SrcA (SsrB-regulated chaperone A, STM2138) (natural protein)
chain: MYSRADRLLRQFSLKLNTDSIVFDENRLCSFIIDNRYRILLTSTNSEYIMIYGFCGKPPDNNNLAFEFLNANLWFAENNGPHLCYDNNSQSLLLALNFSLNESSVEKLECEIEVVIRSMENLYHILQDKGITLDTDYT
notes: SrcA (STM2138), type III secretion chaperone of Salmonella enterica serovar Typhimurium; the srcA gene was amplified from chromosomal DNA; STM numbers count on the LT2 genome; Dimer by crystal structure and gel filtration; source: E. coli Rosetta (DE3), purified (nickel-chelating resin, Mono-Q anion exchange); not shown: His6, C-terminal, kept
- stoichiometry N: 2
